What all share (experiment): ELISA
Holding throughout (conditions): both partners purified
For orientation: In an ELISA, binding on a coated surface is turned into a signal by an enzyme label.

Experiment [1] addresses T1, full-length recombinant H1 HA protein (A/California/07/09, H1N1) (Influenza A virus A/California/07/2009 …, UniProt C3W5X2).
T1 construct: source: bought: Protein Sciences Corporation (purified recombinant full-length HA)

The target of experiment [2] is T2, H1 rHA ectodomain (trimeric HA ectodomain, A/California/07/09, H1N1) (Influenza A virus A/California/07/2009 …, UniProt C3W5X2).
T2 construct: source: bought: International Reagent Resource and Sino Biological (HA ectodomains)

Experiment [3] has as its target recombinant HA1 head protein (rHA1) of H1 HA (A/California/07/09, H1N1) (Influenza A virus A/California/07/2009 …, UniProt C3W5X2).

B1: human monoclonal stem antibody FI6v3 (antibody, V domains shown)
VH: QVQLVESGGGVVQPGRSLRLSCAASGFTFSTYAMHWVRQAPGKGLEWVAVISYDANYKYYADSVKGRFTISRDNSKNTLYLQMNSLRAEDTAVYYCAKDSQLRSLLYFEWLSQGYFDYWGQGTLVTVSS
VL: not shown
notes: also called mAb FI6v3; source: VRC, NIH
For the molecule B1, in experiment [1], the binding result is recorded as “binds”.

B2: mouse monoclonal stem antibody C179 (antibody, V domains shown)
VH: EVKLVESGGGLVQPGGSLRLSCGTSGFTLTDDYMTWVRQPPGKALEWLGFIRDRANGYTTEYSASVKGRFTISRDNSQSIVYLQMNTLRVEDSATYYCARPKGYFPYAMDYWGQGTSVIVSS
VL: DIQMTQSPASQSASLGESVTITCLASQTIGTWLAWYQQKPGKSPQLLIYAATSLADGVPSRFSGSGSGTKFSFKISSLQAEDFVSYYCQQLYSTPWTFGGGTRLEIK
notes: source: purified from hybridoma from mouse ascitic fluid
Regarding B2, the binding result is “binds” in experiment [1], “binds” in experiment [2] and “no binding (tested: 0.5 μg/ml)” in experiment [3].

These data come from article PMC10491405 (PLOS Pathogens, 2023).
